Reference: patent US20120020971A1

B1: MAB53 (antibody, V domains shown)
VH: QVQLVQSGAEVRKPGSSVKVSCKVSGGIIRKYAINWVRQAPGQGLEWMGGIIAIFNTANYAQKFQGRVTITADESTSTVYMELSSLRSEDTALYYCARGMNYYSDYFDYWGQGSLVTVSP
VL: EIVLTQSPGTLSLSPGERATLSCRASQSVRSNNLAWYQHKPGQAPRLLIFGASSRATGIPDRFSGSGSGTDFTLTISRLEPEDFAVYYCQQYGSSPALTFGGGTKVEIKR
B2: MAB8 (antibody, V domains shown)
VH: EVQLVESGGGLVKPGGSLRLSCAASGFTFSTYTMSWVRQAPGQGLEWVSSITRTSSNIYYADSVEGRFTISRDNAKNSLYLQMHSLRVEDTAVYYCARISGVVGPVPFDYWGQGTLITVSS
VL: DIQMTQSPSSLSASVGDRVTITCRASQTISKYLNWYQQKPGRAPKLLIYSASSLQSGVPSRFTGSGSGTDFTLTITSLQPEDFATYYCQQSYRPSQITFGPGTKVDIKR

Experiments:
Assay in all cases: FortéBio biosensor (biolayer interferometry), HA0 protein
[1] = molecular target: HA0 protein from the H7 clade (influenza A virus, H7 clade (strain not stated))
[2] = molecular target: HA0 protein from the H9 clade (influenza A virus, H9 clade (strain not stated))
[3] = molecular target: HA0 protein of the H1 clade (influenza A virus, H1 clade (strain not stated))
[4] = molecular target: HA0 protein from the H5 clade (influenza A virus, H5 clade (strain not stated))
[5] = molecular target: HA0 protein from the H3 clade (influenza A virus, H3 clade (strain not stated))

Binder	Kd [1] [pM]	Kd [2] [pM]	Kd [3] [pM]	Kd [4] [pM]	Kd [5] [pM]
B1	70	30	60	6000	–
B2	–	–	9000	200	16000
